Measurements from article PMC3713452 (2013).

Target: T1, GST-Pdcd4 (GST fusion to full length Drosophila Pdcd4) (Drosophila, UniProt Q9VY91)
T1 chain: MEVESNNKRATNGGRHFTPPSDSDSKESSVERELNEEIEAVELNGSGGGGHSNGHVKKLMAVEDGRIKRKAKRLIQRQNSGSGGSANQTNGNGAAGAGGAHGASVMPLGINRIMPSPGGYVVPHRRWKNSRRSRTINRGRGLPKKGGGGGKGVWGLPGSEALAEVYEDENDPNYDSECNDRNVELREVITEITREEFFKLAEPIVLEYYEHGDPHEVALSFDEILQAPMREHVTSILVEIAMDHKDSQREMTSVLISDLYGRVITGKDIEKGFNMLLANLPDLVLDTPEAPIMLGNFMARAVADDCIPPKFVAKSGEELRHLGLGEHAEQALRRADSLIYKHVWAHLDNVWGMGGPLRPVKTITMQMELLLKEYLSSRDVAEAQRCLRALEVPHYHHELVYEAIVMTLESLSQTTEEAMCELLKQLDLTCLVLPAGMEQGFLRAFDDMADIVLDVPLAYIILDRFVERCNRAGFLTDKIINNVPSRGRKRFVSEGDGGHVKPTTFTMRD
Experiment: GST pull-down (affinity chromatography, immunoblot)

- binding result: binds
B1: recombinant Drosophila eIF4A (6His eIF4A) (protein)
chain: MDDRNEIPQDGPASMEPEGVIESTWHEVYDNFDDMNLREELLRGIYGYGFEKPSAIQQRAIIPCVRGRDVIAQAQSGTGKTATFSIAILQQIDTSIRECQALILAPTRELATQIQRVVMALGEYMKVHSHACIGGTNVREDARILESGCHVVVGTPGRVYDMINRKVLRTQYIKLFVLDEADEMLSRGFKDQIQDVFKMLPPDVQVILLSATMPPDVLEVSRCFMRDPVSILVKKEELTLEGIKQFYVNVKQENWKLGTLCDLYDTLSITQSVIFCNTRRKVDQLTQEMSIHNFTVSAMHGDMEQRDREVIMKQFRSGSSRVLITTDLLARGIDVQQVSLVINYDLPSNRENYIHRIGRGGRFGRKGVAINFITDDDRRILKDIEQFYHTTIEEMPANIADLI
